Measured values: patent US9545446B2, “Agonists of guanylate cyclase and their uses” (priority 2013, dated 2017)
Bridges are numbered along the chain shown (N, C = ends). Where no end group is shown, it is not given here. [ ]: non-standard residue; d: D form.

What was measured:
healthy volunteers = test: Phase I multiple ascending dose study of SP-333; type: in vivo, human
Experimental: […] The maximum tolerated dose was 30 mg with 60 mg deemed an intolerable dose due to 2 instances of fecal incontinence or soiling in the 7 patients dosed with 60 mg SP-333.

[1] = system: patients scheduled to undergo colonoscopy; test: Phase 1 pilot clinical study: oral SP-333 as adjunct to SUPREP Bowel Prep Kit for cleansing of the colon prior to colonoscopy; type: in vivo, human
Experimental: This clinical study outlined above was designed to assess the effect of a single oral dose of 6 mg SP-333 when given concurrently with a standard pre-colonoscopy bowel prep—the SUPREP® Bowel Prep Kit (Braintree Laboratories, Braintree, Mass. 02185, USA). The investigator is a highly experienced gastroenterologist and oversaw all study activities and performed all colonoscopies per their usual routine.
• 1. Take Study Drug approximately 30 minutes before the start of the first bottle of the bowel prep kit. • 2. Take a 6 ounce bottle of study preparation and pour the entire contents into the mixing cup provided. Fill the cup with cool water to the fill line (16 ounces) and drink the entire cup of solution. • 3. Drink two (2) 16 ounce glasses of WATER over the next hour. Fill the mixing cup with water up to the fill line (16 ounces) and drink the entire glass. Morning of Colonoscopy
At least 3 hours prior to colonoscopy: • 1. Take the second 6 ounce bottle of study preparation and pour the entire contents into the mixing cup provided. Fill the cup with cool water to the fill line (16 ounces) and drink the entire cup of solution. • 2. Drink two (2) 16 ounce glasses of WATER over the next hour. Fill the mixing cup with water up to the fill line (16 ounces) and drink the entire glass. • Patient must complete the solution and additional water at least 2 hours before colonoscopy.
The primary endpoint of this study was bowel preparation treatment success as determined by the investigator (bowel preparation will be rated by the Investigator as “Excellent”, “Good”, “Fair” or “Poor”). A successful bowel preparation treatment is defined as bowel cleansing graded either “Excellent” or “Good” by the investigator (See Table 10).
Patients were consented for the study at the same time that informed consent was obtained for the colonoscopy procedure. Each successfully consented & recruited patient took a single dose of 6 mg SP-333 in the evening before the colonoscopy—approximately 30 minutes prior to ingestion of the first bottle of the SUPREP® Bowel Prep Kit (See Section entitled “Patient Instructions for SUPREP® Bowel Prep Kit” above).
Bowel preparation treatment success rate was described; formal hypothesis testing was not performed.
The volume of intra-procedural water required to improve visualization, the proximal insertion depth of the colonoscope and whether or not the right colon and cecum were completely visualized were recorded in the Colonoscopy Procedure Record.

healthy subjects = test: Phase I single ascending oral dose study of SP-333; type: in vivo, human
Experimental: Two phase 1 clinical studies with SP-333 have been completed to date and a Phase 2 trial in OIC is in progress. In the Phase I single ascending oral dose study, conducted in 64 healthy subjects, the following doses of SP-333 were tested: 0.1, 0.3, 1, 3, 10, 20, 30, and 60 mg. […] Diarrhea was the most common adverse event and was generally dose-related, with 1 mg being the threshold dose. The time to onset of diarrhea was variable but tended to decrease with increasing doses from 4 to 2 hours or less. The number of subjects with watery bowel movement rose from none (<3 mg) to 2 of 6 (3, 10 and 20 mg) to 4 of 6 (30 mg). The majority of these episodes was mild, occurred once, and was associated with urgency and in some cases mild cramping. There were no SAEs.

[2] = Phase 1 pharmacokinetic sampling (systemic absorption after oral dose); type: in vivo, human; settings: oral doses <10 mg
Experimental: Phase 1 pharmacokinetic sampling indicated no detectable (limit of quantitation=1 ng/mL) systemic absorption of SP-333 following oral doses <10 mg; it is therefore highly unlikely that a single oral dose of 6 mg SP-333 will result in any systemic exposure.

intestinal GC-C receptor = intestinal GC-C receptor (Homo sapiens, UniProt P25092); test: in vitro and in vivo pharmacology studies (GC-C agonism); settings: several in vitro and in vivo pharmacology studies
[3] = 6 mg oral daily dose, healthy volunteers
[4] = 6 mg SP-333 added to standard colonoscopy cleansing preparation (SUPREP), 9 patients

Sequence of intestinal GC-C receptor (P25092 24-1073): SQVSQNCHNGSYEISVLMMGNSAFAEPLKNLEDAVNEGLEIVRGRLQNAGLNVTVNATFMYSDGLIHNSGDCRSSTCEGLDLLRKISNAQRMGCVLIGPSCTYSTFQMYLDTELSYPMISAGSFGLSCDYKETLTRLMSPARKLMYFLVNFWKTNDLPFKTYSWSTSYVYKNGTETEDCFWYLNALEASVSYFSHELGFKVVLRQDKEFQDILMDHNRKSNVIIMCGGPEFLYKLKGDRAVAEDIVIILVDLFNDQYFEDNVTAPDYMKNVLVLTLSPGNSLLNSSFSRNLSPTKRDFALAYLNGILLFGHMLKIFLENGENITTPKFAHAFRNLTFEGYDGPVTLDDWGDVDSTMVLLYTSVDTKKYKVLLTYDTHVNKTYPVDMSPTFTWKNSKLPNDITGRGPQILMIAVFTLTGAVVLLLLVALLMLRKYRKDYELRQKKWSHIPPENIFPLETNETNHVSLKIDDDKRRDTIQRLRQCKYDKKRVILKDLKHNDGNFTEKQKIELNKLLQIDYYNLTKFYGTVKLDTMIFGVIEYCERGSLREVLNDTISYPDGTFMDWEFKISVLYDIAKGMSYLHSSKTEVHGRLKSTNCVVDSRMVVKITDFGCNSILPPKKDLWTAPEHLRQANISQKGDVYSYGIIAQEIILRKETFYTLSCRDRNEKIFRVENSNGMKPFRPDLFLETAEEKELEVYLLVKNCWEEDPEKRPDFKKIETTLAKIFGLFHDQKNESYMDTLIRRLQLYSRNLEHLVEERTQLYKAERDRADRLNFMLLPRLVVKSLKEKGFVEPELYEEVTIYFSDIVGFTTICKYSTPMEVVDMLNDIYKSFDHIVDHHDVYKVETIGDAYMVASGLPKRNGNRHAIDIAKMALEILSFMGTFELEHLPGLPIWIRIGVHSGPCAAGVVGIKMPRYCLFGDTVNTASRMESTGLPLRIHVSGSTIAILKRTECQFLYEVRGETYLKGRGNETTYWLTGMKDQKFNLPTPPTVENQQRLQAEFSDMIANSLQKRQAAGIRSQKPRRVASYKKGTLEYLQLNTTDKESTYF

In the case of “dAsn^1-Asp^2-Glu^3-Cys^4-Glu^5-Leu^6-Cys^7-Val^8-Asn^9-Val^10-Ala^11-Cys^12-Thr^13-Gly^14-Cys^15-dLeu^16 ([dN]DECELCVNVACTGC[dL]; disulfide 4-12, 7-15) [SP-333]”, the “additional AEs” value (healthy volunteers; [3]) is reported as “No additional AEs of note”, the “effect of dose in Phase 1 studies (basis of dose selection)” value (healthy volunteers; [3]) is reported as “self-limited diarrhea (watery stools) with mild urgency” and the “instances of fecal incontinence or soiling” value (healthy volunteers; 60 mg daily for 7 days, 7 patients dosed) is reported as 2. For the same substance, the “changes in hematology, clinical chemistry, or urinalysis parameters” value (healthy volunteers; any dose level) was “no clinically meaningful changes”, the “changes in vital sign or ECG parameters” value (healthy volunteers; any dose level) was “no clinically meaningful changes” and the “overall safety and tolerability” value (healthy volunteers; daily 0.3, 1, 3, 10, 30 mg for 14 days or 60 mg for 7 days, 89 subjects) was “generally safe and well-tolerated”. For the same substance, the maximum tolerated dose (healthy volunteers; daily doses for 14 days) was 30 mg, the intolerable dose (healthy volunteers; daily for 7 days, due to fecal incontinence or soiling) was 60 mg and the “most commonly reported TEAEs (treatment-emergent adverse events)” value (healthy volunteers; mild or moderate intensity) was “gastrointestinal disorders (primarily diarrhea and defecation urgency)”. For the same substance, the “subjects with a serious adverse event (SAE)” value (healthy volunteers; multiple ascending dose) was “no subject”, the “subjects withdrawn from the study due to a TEAE” value (healthy volunteers; multiple ascending dose) was “no subject” and the colonoscopy procedure outcome [1, 4] was “safe and successful procedure”. For the same substance, the “visualization of the colon as observed by the gastroenterologist” value [1, 4] was “better visualization of the entire colon”, the “tolerability of combination with standard colonoscopy preparation” value ([1]; single oral 6 mg SP-333 evening before colonoscopy plus SUPREP Bowel Prep Kit, 9 patients) was “very well” and the “ease of preparation as judged by subjects with previous colonoscopies” value ([1]; versus past colon cleansing preparation without SP-333) was “much easier”. The “severity of the majority of watery bowel movement episodes” value (healthy subjects; occurred once, associated with urgency, in some cases mild cramping) was “mild”, the “changes in clinical laboratory test results, ECG or vital signs” value (healthy subjects; single ascending oral dose) was “No clinically meaningful changes” and the “serious adverse events (SAEs)” value (healthy subjects; single ascending oral dose) was “no SAEs”. The “threshold dose for diarrhea” value (healthy subjects; single ascending oral dose) was 1 mg, the “most common adverse event” value (healthy subjects; single ascending oral dose, generally dose-related) was “Diarrhea” and the “number of subjects with watery bowel movement” value (from here on “number of subjects”) (healthy subjects; single oral dose 30 mg) was 4 of 6. The “number of subjects” value (healthy subjects; single oral dose 3, 10 and 20 mg) was 2 of 6, the “number of subjects” value (healthy subjects; single oral dose <3 mg) was “none” and the “overall safety and tolerability” value (healthy subjects; single oral doses 0.1, 0.3, 1, 3, 10, 20, 30, 60 mg, 64 healthy subjects) was “safe and well tolerated”. The “time to onset of diarrhea” value (healthy subjects; variable, tended to decrease with increasing doses, to 2 hours or less) was 4 to 2 hours, the “systemic absorption (not detectable; limit of quantitation)” value [2] was under 1 ng/mL and the “agonism of the intestinal GC-C receptor” value (intestinal GC-C receptor) was “potent agonist”.
